Experimental data published in paper doi:10.1101/2024.02.08.579498 (bioRxiv, 2024).

T1: TrwE/VirB10 (plasmid R388, UniProt O50337 1-395)
T1 sequence: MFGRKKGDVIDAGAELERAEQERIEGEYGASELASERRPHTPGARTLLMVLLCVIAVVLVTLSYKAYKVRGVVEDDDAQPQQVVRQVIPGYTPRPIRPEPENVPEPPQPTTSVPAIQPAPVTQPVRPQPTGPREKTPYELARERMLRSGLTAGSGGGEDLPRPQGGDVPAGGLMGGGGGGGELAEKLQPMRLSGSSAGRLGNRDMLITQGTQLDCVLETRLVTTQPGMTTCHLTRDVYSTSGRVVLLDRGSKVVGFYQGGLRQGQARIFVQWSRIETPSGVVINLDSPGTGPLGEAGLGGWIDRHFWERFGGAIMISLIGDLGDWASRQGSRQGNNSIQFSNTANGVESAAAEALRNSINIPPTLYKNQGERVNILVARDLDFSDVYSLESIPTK

B1: TrwI/VirB6 (natural protein, plasmid R388)
chain: MAFELFTPLFNKIDQTTATYVTDISSRAIAAITPVVSVGLTLGFITYGWLIIRGAVEMPVAEFLNRCLRIGIIVSIALAGGLYQGEIANAITTVPDELASALLGNPTEGASAAALVDQSAQQGFDRASEAFEEAGFFSSDGLLYGLFGIIIPAGYGPAGAIGGAFLLLAKIALALLAGLGPLFILALIWQPTHRFFDQWAQQVLNYGLLIVLFAAVFGLLMQIFGSYMADLRFDGAQNVAYAIGGSVILSIVSIVLLMQLPSIASGLAGGIGLGYMWELRSMRSGAGAAMRGGRAMARGARAAPGAARGAAVGAANMAKTVATGGAGVARAAAGYFRGRKAG
B2: TrwF/VirB9 (natural protein, plasmid R388)
chain: LDVPSSSRYDHRIRYVTYNPADVVQVDTVLGVATHIMLEEGEQYLTHAFGIPKPMPLPGRAGIFLSSRTAELANTNLIVVTDRRSYKFRLQMRNDRNGAMYELAFRYPDTQARQTREANARAAVEAAFEQRVGAYYNLKYMMSGDKDIAPVNAWDDGRFTYFKFSANADLPSIYFVDAEGNESLVPRTTVGSSNNIIAVHKVNPKWMIRLGNRALAIFNEAYDPNGVPNDTGTASPAVRRVNKGGN
B3: TrwG/VirB8 (natural protein, plasmid R388)
chain: MSKKQPKPVKAEQLKSYYEESRGLERDLIGEFVKSRKTAWRVATASGLFGLLGMVCGIVGFSQPAPAPLVLRVDNATGAVDVVTTLREHESSYGEVVDTYWLNQYVLNREAYDYNTIQMNYDTTALLSAPAVQQDYYKLFDGSNARDRVLGNKARITVRVRSIQPNGRGQATVRFTTQQHNSNGTVERPQHQIATIGYTYIGAPMRSSDRLLNPLGFQVTSYRADPEILNN
B4: TrwJ/VirB5 (natural protein, plasmid R388, UniProt O50331 23-226, looked up)
chain: QGIPVFDGTRALDFVQQFARMKEQLDTAKDQLAEAQRMYEAVTGGRGLGDLMRNAQLREYLPDDLRTVYDSANGGGYSGISGSINDILRDERLNGSVADMRRSIEERSRTARTTDKAVGCGPTKGHSNASRRLKDEISRTQDQKAIEELQARIAGEQAAIQNETTKLQMIAQLRQAEQALISEQRRERNMPILSSGNQGMPTIQ

Legend:
Test in all cases: cryo-EM structure
TrwE/VirB10 = molecular target: T1, TrwE/VirB10
cryo-EM structure = molecular target: the molecule itself
TrwI/VirB6 = molecular target: B1

binding result (TrwE/VirB10) | binding result (TrwI/VirB6) | Binder | stoichiometry N (cryo-EM structure)
binds | – | B1 | –
binds | – | B2 | –
binds | – | B3 | 24
– | binds | B4 | –
